Laboratory results from patent US20040091878, “Zinc finger domain recognition code and uses thereof” (published 2004).

B1: Zif268 target probe (dsDNA)
DNA 1: TATATATAGCGTGGGCGTTATATATA
DNA 2: TATATATAACGCCCACGCTATATATA
B2: AL1 target probe (dsDNA)
DNA 1: TATATATAAGTAAGGTAGTATATATA
DNA 2: TATATATACTACCTTACTTATATATA

Key:
[1] = target: Zif268 (UniProt P08046 P08046:333-421); test: EMSA; half-maximal binding; positive control; 0.1 mM ZnCl2
[2] = target: AL1 ZFP (Clone 1, 3-finger, Sp1C domain 2 framework) (artificial); test: EMSA; half-maximal binding also 18 nM; 10 mM Tris pH 7.5, 100 mM NaCl, 1 mM MgCl2, 0.1 mM ZnCl2, poly(dA-dT)2, on ice; conditions: tags: expressed from pET-21a in E. coli BL21(DE3)pLysS, Bio-Rex 70 purified; label: 5'-32P
Sequence of AL1 ZFP (Clone 1, 3-finger, Sp1C domain 2 framework) (artificial) (chain, as listed by the source): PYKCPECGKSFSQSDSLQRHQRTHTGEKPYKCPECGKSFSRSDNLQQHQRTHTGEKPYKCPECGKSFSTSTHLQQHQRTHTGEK

Row | Binder | apparent K (half saturation) [1] [nM] | Kd [2] [nM]
1 | B1 | 4 | 
2 | B2 |  | 18
